Laboratory results from publication PMC3988567 (RNA, 2014).
“And” between values parts separate entries of the source, which are not always exact repeats. Identical values can stand only once.

Experiments:
ubiquitin = ubiquitin (UniProt P0CG48 1-76); assay: ITC
Full-length Snu66 = target: T1, Full-length Snu66 (S. cerevisiae, UniProt Q12420 1-587); assay: pull-down
T1 sequence: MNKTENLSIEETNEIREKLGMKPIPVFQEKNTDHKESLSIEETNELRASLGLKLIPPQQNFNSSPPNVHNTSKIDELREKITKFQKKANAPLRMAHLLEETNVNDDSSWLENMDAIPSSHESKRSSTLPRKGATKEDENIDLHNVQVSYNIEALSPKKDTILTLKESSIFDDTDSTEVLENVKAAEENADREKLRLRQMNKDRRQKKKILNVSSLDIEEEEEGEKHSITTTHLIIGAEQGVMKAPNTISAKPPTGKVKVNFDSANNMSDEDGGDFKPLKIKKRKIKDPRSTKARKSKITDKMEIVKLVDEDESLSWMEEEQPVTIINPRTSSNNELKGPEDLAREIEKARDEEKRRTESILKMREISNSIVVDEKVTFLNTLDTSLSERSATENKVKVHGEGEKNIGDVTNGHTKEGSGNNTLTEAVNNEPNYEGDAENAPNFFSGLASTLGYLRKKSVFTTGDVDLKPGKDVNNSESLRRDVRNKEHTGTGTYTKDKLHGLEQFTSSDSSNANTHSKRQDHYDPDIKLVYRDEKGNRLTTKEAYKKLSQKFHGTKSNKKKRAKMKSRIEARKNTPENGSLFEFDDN

| Binder | Kd (ubiquitin) | binding result (Full-length Snu66) |
| --- | --- | --- |
| ZnF-UBP domain from USP5 (domain or fragment) KQEVQAWDGEVRQVSKHAFSLKQLDNPARIPPCGWKCSKCDMRENLWLNLTDGSILCGRRYFDGSGGNNHAVEHYRETGYPLAVKLGTITPDGADVYSYDEDDMVLDPSLAEHLSHFGIDMLKMQKTDK | 2400 nM and 2300 nM |  |
| GST-Hub1 (natural protein) MIEVVVNDRLGKKVRVKCLAEDSVGDFKKVLSLQIGTQPNKIVLQKGGSVLKDHISLEDYEVHDQTNLELYYL |  | binds |
